The source of these data is article PMC4409726, “Characterization of chromosomal and megaplasmid partitioning loci in Thermus thermophilus HB27”.

One series has as its target T1, ParBm (Thermus thermophilus HB27, UniProt Q746H2 1-297).
T1 sequence: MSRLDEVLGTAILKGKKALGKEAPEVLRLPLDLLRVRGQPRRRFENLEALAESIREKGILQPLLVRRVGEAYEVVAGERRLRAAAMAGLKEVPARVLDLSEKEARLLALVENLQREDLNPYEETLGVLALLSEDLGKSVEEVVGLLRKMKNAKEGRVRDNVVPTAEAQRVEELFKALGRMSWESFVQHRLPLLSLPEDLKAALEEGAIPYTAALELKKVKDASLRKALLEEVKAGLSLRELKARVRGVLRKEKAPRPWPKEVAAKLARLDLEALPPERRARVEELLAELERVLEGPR
Kind of series: EMSA; poly(dI-dC); WT competitor competes much better than mutant; 50 mM KCl, 10 mM Tris-HCl pH 7.0, 1 mM EDTA, 1 mM DTT, 4% glycerol, 0.02 ug/ul poly(dI-dC), 25 ul, 15 pmol FAM probe, 0 or 200 pmol ParB (competition), 25 C 30. Conditions: protein: recombinant; tags: His tag implied (pET21a, Ni-IDA); chain copies: 2; blunt. (A gel shift assay detects complexes by their altered migration in electrophoresis.)

The next series concerns the target T2, ParBc (Thermus thermophilus HB27, UniProt Q72H91 1-269).
T2 sequence: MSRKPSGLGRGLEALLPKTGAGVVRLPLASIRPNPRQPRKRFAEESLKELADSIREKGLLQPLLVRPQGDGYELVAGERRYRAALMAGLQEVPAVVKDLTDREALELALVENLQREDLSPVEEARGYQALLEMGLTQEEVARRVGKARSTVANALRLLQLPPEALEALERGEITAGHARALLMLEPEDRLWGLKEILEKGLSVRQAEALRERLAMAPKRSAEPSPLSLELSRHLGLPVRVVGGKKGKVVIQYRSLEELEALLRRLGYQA
Described as above. Conditions: protein: recombinant; tags: His tag implied (pET21a, Ni-IDA); chain copies: 2; blunt.

B1: WT parSm 18-bp probe (dsDNA)
DNA 1: GCAAGGACGCGTCCTTCA
DNA 2: TGAAGGACGCGTCCTTGC
As to B1, the binding result with ParBm is “binds”.

B2: WT parSc 25-bp probe (dsDNA)
DNA 1: TGTTTCCCGTGAAACATCAGGCGCC
DNA 2: GGCGCCTGATGTTTCACGGGAAACA
Regarding B2, the binding result with ParBc is given as “binds”.
